According to patent US20240287172A1 (SCIRHOM, published 2024):

T1: hiR2-FL-P533A-T7 (human, UniProt Q6PJF5 1-856)
T1 sequence: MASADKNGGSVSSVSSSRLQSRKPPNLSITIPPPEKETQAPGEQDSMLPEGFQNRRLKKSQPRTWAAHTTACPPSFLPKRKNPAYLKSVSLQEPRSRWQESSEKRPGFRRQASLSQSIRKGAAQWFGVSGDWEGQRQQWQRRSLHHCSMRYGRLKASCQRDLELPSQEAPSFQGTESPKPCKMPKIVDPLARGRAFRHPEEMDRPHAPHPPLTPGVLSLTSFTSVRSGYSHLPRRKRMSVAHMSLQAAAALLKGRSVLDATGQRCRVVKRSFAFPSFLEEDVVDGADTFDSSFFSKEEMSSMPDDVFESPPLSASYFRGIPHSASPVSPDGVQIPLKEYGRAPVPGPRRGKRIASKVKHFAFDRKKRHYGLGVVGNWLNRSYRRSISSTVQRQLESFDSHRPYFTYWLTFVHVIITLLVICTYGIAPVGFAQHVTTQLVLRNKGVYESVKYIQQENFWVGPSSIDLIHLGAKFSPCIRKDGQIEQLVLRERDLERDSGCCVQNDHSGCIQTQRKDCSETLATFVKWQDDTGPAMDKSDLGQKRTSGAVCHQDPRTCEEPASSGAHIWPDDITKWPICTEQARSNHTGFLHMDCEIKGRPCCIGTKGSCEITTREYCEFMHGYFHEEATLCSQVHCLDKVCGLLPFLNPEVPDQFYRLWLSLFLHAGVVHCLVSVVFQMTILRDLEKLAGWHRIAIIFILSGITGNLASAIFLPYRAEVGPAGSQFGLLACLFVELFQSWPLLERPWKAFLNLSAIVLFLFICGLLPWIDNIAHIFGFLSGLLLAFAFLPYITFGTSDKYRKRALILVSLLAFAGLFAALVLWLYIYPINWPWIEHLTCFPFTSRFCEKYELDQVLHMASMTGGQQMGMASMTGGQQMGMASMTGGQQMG

T2: hiR2-FL-K525A-T7 (human, UniProt Q6PJF5 1-856)
T2 sequence: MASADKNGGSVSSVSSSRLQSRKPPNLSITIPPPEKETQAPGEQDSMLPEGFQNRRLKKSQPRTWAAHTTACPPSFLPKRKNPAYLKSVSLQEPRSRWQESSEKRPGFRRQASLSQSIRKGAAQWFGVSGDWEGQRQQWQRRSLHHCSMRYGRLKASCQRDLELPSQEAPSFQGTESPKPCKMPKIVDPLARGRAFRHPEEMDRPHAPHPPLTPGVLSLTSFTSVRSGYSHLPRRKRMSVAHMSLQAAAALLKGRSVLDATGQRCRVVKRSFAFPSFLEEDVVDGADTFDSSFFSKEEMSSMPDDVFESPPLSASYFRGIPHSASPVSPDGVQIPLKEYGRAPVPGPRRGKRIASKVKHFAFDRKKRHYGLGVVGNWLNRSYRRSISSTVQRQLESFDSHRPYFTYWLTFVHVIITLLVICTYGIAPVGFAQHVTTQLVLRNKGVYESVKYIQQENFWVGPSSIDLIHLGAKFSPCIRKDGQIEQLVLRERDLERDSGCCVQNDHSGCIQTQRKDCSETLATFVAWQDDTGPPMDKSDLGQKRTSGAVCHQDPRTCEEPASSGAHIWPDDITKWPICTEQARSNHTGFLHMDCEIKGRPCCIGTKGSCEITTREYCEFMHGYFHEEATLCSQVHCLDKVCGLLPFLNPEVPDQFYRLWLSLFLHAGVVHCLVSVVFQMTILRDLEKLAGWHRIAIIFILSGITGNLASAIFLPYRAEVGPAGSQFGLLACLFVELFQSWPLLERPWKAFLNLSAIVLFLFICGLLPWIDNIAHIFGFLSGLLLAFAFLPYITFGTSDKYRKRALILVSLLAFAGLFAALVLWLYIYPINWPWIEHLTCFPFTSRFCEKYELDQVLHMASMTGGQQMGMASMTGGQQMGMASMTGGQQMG


What was measured:
hiR2-FL-P533A-T7 = biological target: T1, hiR2-FL-P533A-T7; assay: FACS on MEF-DKO cells expressing the variant, 3 µg/ml antibody
In short: (§1)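 Primary stain: antibody 3 μg/ml, 1 h on ice; controls buffer alone. Secondary: PE anti-mouse IgG F(ab′)2 1:100, 1 h on ice, light-protected. Washes at 4° C; read by flow cytometry.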

hiR2-FL-K525A-T7 = biological target: T2, hiR2-FL-K525A-T7; assay: as above
In short: as §1

Binder | loss of binding vs wild type (hiR2-FL-P533A-T7) [%] | loss of binding vs wild type (hiR2-FL-K525A-T7) [%]
antibody 34 (antibody, V domains shown, mouse IgG, kappa light chain; also called clone #34; purified antibody 34) VH: QVTLKESGPGILQPSQTLSLTCSFSGFSLSTFSLGVGWIRQSSGKGLEWLAHIWWDDEKYYNPALKSRLTISKDTSKNQVFLKIANVDAADTATYYCARAYYSKSYYALDYWGQGTSVTVSS VL: DIQMTQSPSSLSASLGERVSLTCRASQEISGYLSWLQQKPDGTIKRLIYAASTLDSGVPKRFSGSRSGSDYSLAISSLESEDFADYYCLQYANFPFTFGSGTKLEIK | ≥ 30 | 
antibody 48 (antibody, V domains shown, mouse IgG, kappa light chain; also called clone #48; purified antibody 48) VH: QVQLQQSGTELVRPGTSVKVSCKASGYAFTNYLIEWVKQRPGQGLEWIGVINPGSGFTKYNEKFKGKATLTADKSSSTVYMHLSSLTSEDSAVYFCARGLYRAMDYWGQGTSVTVSS VL: DIQMTQSPASQSASLGESVTITCLASQTIATWLAWYQQKPGKSPQLLIYGATTLADGVPSRFSGGGSGTKFSFKISSLQAEDFVSYYCQQLYSTPYTFGGGTKLEIK |  | ≥ 30
